Our source for the EC50 values is publication PMC11205257.

Test [1] deals with GRAB CRF1.0 sensor (human (GPCR scaffold cDNA)). As to the kind of experiment: other fluorescence titration.
For test [2] the target is unchanged. As to the kind of experiment: other fluorescence titration. The source holds these as a separate data set.

Read-outs that look alike come from different tables or passages of the source.

One may read the EC50 as the concentration giving half of the maximal effect. Read a low EC50 as a more potent agent.

As for SEEPPISLDLTFHLLREVLEMARAEQLAQQAHSNRKLMEIIGK [corticotropin-releasing factor (CRF)], the figures for the EC50 in test [1] and in test [2] were 33 nM and 18.6 nM, respectively. Consider DNPSLSIDLTFHLLRTLLELARTQSQRERAEQNRIIFDSVGK [urocortin 1 (UCN1)], for which the EC50 in test [1] is 69 nM.
